Results from paper PMC5725786, “Characterization of interactions between hepatitis C virus NS5B polymerase, annexin A2 and RNA – effects on NS5B catalysis and allosteric inhibition”.

Assays:
[1] = molecular target: Bovine annexin A2 (bovine) (UniProt P04272); assay: SPR; AnxA2 or mAnxA2 immobilised on a CM5 chip by amine coupling, NS5B (31 to 500 nM) as analyte; multi cycle with regeneration (2 M NaCl and 2 M MgCl2); 25 °C, HBS-EP pH 7.4 with 70 uM Ca2+ and 1 mM Mg2+; approximate steady state analysis, apparent KD
[2] = molecular target: Bovine annexin A2 engineered variant unable to bind RNA (mAnxA2) (bovine) (UniProt P04272); assay: as above
AnxA2 (annexin A2, wt) [3] = molecular target: T1, AnxA2 (annexin A2, wt) (Bos taurus (bovine), UniProt P04272 1-339); assay: SPR; kinetic 1:1 fit (ka 0.99e6 1/Ms, kd 0.002 1/s); 70 uM Ca2+, 1 mM Mg2+; AnxA2 immobilized; HBS-EP: 10 mM HEPES pH 7.4, 150 mM NaCl, 3 mM EDTA, 0.005% Surfactant P20, 70 uM Ca2+, 1 mM Mg2+, 25 °C; settings: protein: recombinant; single strand
AnxA2 (annexin A2, wt) [4] = molecular target: T1, AnxA2 (annexin A2, wt); assay: SPR; steady-state analysis; 70 uM Ca2+, 1 mM Mg2+; AnxA2 immobilized; HBS-EP: 10 mM HEPES pH 7.4, 150 mM NaCl, 3 mM EDTA, 0.005% Surfactant P20, 70 uM Ca2+, 1 mM Mg2+, 25 °C; settings: protein: recombinant; single strand
mAnxA2 = mAnxA2 (Bos taurus (bovine), UniProt P04272 1-339, K308S;K309S;K310S;K313S;Y317S;Q321S); assay: SPR; 3-100 nM RNA over immobilized mAnxA2; 70 uM Ca2+, 1 mM Mg2+; HBS-EP: 10 mM HEPES pH 7.4, 150 mM NaCl, 3 mM EDTA, 0.005% Surfactant P20, 70 uM Ca2+, 1 mM Mg2+, 25 °C; settings: protein: recombinant; single strand

“HCV NS5B polymerase, ectodomain (NS5BΔ21), genotype 1b (enzyme)” was tested, and the Kd [1] was 30 nM and the Kd [2] was 240 nM.

B1: 8-mer RNA (ssRNA)
RNA: GGGGAUUG
In the case of B1, the Kd (AnxA2 (annexin A2, wt) [3]) is reported as 2 nM, the Kd (AnxA2 (annexin A2, wt) [4]) is reported as 8.3 nM and the binding result (mAnxA2) is reported as “no binding”.
